Source: patent US20080213284A1

How the values were obtained:
[1] = molecular target: receptor on VERO E6 cells (not identified in the filing); experiment: flow cytometry on VERO E6 cells, FITC anti-human IgG Fc
[2] = molecular target: receptors in NIH 3T3 cells (not identified in the filing); experiment: flow cytometry on NIH 3T3 cells, FITC anti-human IgG Fc
[3] = molecular target: receptor on VERO E6 cells (not identified in the filing)

Substance | concentration at which it bound [1] [µg/mL] | concentration at which it bound [2] [µg/mL] | avidity [3] [µM]
S1-Fc fusion protein (from UniProt P59594 14-333) | 1 | – | –
S2-Fc fusion protein (from UniProt P59594 334-666) | 0.1 | 1 | 1
S3-Fc fusion protein (from UniProt P59594 667-999) | – | 0.1 | –
